Our source for the Km and kcat values is paper PMC7337054, “Structural basis for differentiation between two classes of thiolase: Degradative vs biosynthetic thiolase” (Journal of Structural Biology: X, 2020).

Substrate in this data set: CC(=O)CC(=O)SCCNC(=O)CCNC(=O)[C@H](O)C(C)(C)COP(=O)(O)OP(=O)(O)OC[C@H]1O[C@@H](n2cnc3c(N)ncnc32)[C@H](O)[C@@H]1OP(=O)(O)O
Put plainly: purified protein. Format: biochemical, Pseudomonas putida. The following applies: thiolytic cleavage, 70 μM CoASH, 25 mM MgCl2, 0.1 M Tris-HCl pH 8.3, 37 °C.

Broadly, the Km is the substrate concentration at which the rate is half of its maximum.

B1: PcaF (β-ketoadipyl-CoA thiolase) (Pseudomonas putida KT2440) (protein)
chain: MHDVFICDAIRTPIGRFGGALASVRADDLAAVPLKALIERNPGVQWDQVDEVFFGCANQAGEDNRNVARMALLLAGLPESIPGVTLNRLCASGMDAVGTAFRAIASGEMELVIAGGVESMSRAPFVMGKAESAYSRNMKLEDTTIGWRFINPLMKSQYGVDSMPETADNVADDYQVSRADQDAFALRSQQKAAAAQAAGFFAEEIVPVRIAHKKGEIIVERDEHLRPETTLEALTKLKPVNGPDKTVTAGNASGVNDGAAAMILASAAAVKKHGLTPRARVLGMASGGVAPRVMGIGPVPAVRKLTERLGIAVSDFDVIELNEAFASQGLAVLRELGVADDAPQVNPNGGAIALGHPLGMSGARLVLTALHQLEKSGGRKGLATMCVGVGQGLALAIERV
notes: full length, 400 residues plus 22 vector residues; N-terminal His-tag with TEV site, pSGC-His, E. coli BL21(DE3) pLysS; tetramer
As to B1, the Km was 67.8 ± 8.2 µM and the kcat was 0.7 ± 0.08 S^−1.
